Results taken from patent publication US12297272B2, “IgG Fc variants for veterinary use” (Elanco US Inc., priority 2017, dated 2025).

Columns and labels:
Protein A = Protein A (Staphylococcus aureus, UniProt P38507); settings: for Protein A Binding: Wild-type Canine IgG Fc
Protocol: In some embodiments, the KD of an IgG Fc polypeptide, such as a variant IgG Fc polypeptide, to Protein A or to C1q or to CD16 is measured by using biolayer interferometry assays using a biosensor, such as an Octet® System (Pall ForteBio LLC, Fremont, CA) according to the supplier's instructions. In brief, biotinylated Protein A or C1q or CD16 is bound to the sensor tip and the association of IgG Fc polypeptide is monitored for a specified time or until steady state is reached. Dissociation may be monitored for a specified time or until steady state is reached. A buffer only blank curve is subtracted to correct for any drift. The data are fit to a 2:1 binding model using ForteBio data analysis software to determine association rate constant (kon), dissociation rate constant (koff), and the Kd. The equilibrium dissociation constant (KD) is calculated as the ratio of koff/kon. The term “kon” refers to the rate constant for association of a molecule X to its partner Y and the term “koff” refers to the rate constant for dissociation of a molecule X or partner Y from the molecule X/partner Y complex.
Binding analysis may be performed using an Octet biosensor. Briefly, the target molecule (e.g., Protein A, C1q, CD16, etc.) may be biotinylated and free unreacted biotin removed (e.g., by dialysis). The biotinylated target molecule is captured on streptavidin sensor tips. Association of the target molecule with various concentrations (e.g., 10 μg/mL) of IgG Fc polypeptide is monitored for a specified time or until steady state is reached. Dissociation is monitored for a specified time or until steady state is reached. A buffer only blank curve may be subtracted to correct for any drift. The data are fit to a 1:1 binding model using ForteBio™ data analysis software to determine the kon, koff, and the Kd.

C1q [1] = molecular target: T1, C1q (Homo sapiens, UniProt P02745+P02746+P02747); assay: C1q binding of IgG Fc polypeptides (Octet biolayer interferometry described); settings: for C1q Binding: Wild-type Canine IgG Fc; on C1q binding: key: (−) denotes low or no measurable binding activity
Description: (§1) Binding analysis may be performed using an Octet biosensor.

CD16 = CD16 (Homo sapiens, UniProt P08637); assay: CD16 binding of IgG Fc polypeptides (Octet biolayer interferometry described); settings: for CD16 Binding: Wild-type Canine IgG Fc
Description: as §1

[2] = Differential scanning fluorimetry, stability at various pH; assay type: physicochemical; settings: n = 3, 10 μg construct
Description: Furthermore, differential scanning fluorimetry was used to assess the stability of the contiguous polypeptides at various pH, as reflected by mean melting point temperature (n=3) (Table 9, below). The increased stability of the variant feline IgG2 hinge is most evident at pH 6.

C1q [3] = molecular target: T1, C1q; assay: Binding between human C1q and canine IgG-B Fc fusion protein; settings: compared to a fusion protein comprising wild-type canine IgG-B Fc
Description: as §1

Sequence of CD16 (P08637 17-254): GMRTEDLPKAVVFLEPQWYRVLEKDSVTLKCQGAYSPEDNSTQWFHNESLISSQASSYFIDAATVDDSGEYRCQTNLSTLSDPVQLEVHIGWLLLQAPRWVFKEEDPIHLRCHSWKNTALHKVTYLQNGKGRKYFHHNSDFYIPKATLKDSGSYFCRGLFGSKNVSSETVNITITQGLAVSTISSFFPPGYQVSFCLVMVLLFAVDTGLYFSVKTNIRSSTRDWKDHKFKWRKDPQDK
T1 sequence (P02745 23-245): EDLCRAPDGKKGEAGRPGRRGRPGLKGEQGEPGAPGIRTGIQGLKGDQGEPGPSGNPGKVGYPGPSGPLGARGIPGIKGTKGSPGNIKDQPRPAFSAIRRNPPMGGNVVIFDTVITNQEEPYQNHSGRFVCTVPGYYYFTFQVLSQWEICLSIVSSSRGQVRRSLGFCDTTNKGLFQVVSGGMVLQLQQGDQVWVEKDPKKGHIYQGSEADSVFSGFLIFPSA
T1 sequence (P02746 28-253): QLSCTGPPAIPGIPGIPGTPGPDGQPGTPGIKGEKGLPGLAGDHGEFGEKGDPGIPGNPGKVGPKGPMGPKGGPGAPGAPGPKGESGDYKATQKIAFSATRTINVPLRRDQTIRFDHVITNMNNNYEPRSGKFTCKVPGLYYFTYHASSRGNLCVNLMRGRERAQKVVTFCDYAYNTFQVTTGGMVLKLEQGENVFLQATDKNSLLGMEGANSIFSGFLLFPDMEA
T1 sequence (P02747 29-245): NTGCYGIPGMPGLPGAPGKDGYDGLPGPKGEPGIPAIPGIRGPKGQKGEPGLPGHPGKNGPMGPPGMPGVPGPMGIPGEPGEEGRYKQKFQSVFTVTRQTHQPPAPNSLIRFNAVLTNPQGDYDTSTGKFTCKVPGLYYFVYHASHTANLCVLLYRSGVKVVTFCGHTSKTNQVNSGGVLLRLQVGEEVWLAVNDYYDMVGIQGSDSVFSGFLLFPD

B1: canine IgG-A Fc: wild-type canine IgG-A Fc polypeptide (protein)
chain: PVPEPLGGPSVLIFPPKPKDILRITRTPEVTCVVLDLGREDPEVQISWFVDGKEVHTAKTQSREQQFNGTYRVVSVLPIEHQDWLTGKEFKCRVNHIDLPSPIERTISKARGRAHKPSVYVLPPSPKELSSSDTVSITCLIKDFYPPDIDVEWQSNGQQEPERKHRMTPPQLDEDGSYFLYSKLSVDKSRWQQGDPFTCAVMHETLQNHYTDLSLSHSPGK
modifications: Wild-type canine IgG-A Fc , Protein A -, C1q -, CD16
notes: wild-type canine IgG-A Fc polypeptide
- Protein A binding affinity (Protein A): weak or no measurable Protein A binding affinity
- Protein A Binding (Protein A): −
- binding affinity to C1q (C1q [1]): weak or no measurable binding affinity to C1q
- C1q Binding (C1q [1]): −
- CD16 Binding (CD16): −

B2: GLP1-G8/GLP1-2G_III_WTfeIgG2: Formula III contiguous polypeptide: GLP1-G8 (7-35), GLP1 (7-35), two flexible linkers, 2G C-terminal extension, wildtype feline IgG2 Fc (protein)
chain: HGEGTFTSDVSSYLEGQAAKEFIAWLVKGGGGSGGGGSGGGGSGGGGSPKTASTIESKTGEGPKCPVPEIPGAPSVFIFPPKPKDTLSISRTPEVTCLVVDLGPDDSNVQITWFVDNTEMHTAKTRPREEQFNSTYRVVSVLPILHQDWLKGKEFKCKVNSKSLPSAMERTISKAKGQPHEPQVYVLPPTQEELSENKVSVTCLIKGFHPPDIAVEWEITGQPEPENNYQTTPPQLDSDGTYFLYSRLSVDRSHWQRGNTYTCSVSHEALHSHHTQKSLTQSPGKGGGGSGGGGHAEGTFTSDVSSYLEGQAAKEFIAWLVKGGG
modifications: Synthetic GLP1-G8/GLP-2G_III_ WTfeIgG2
notes: Formula III contiguous polypeptide: GLP1-G8 (7-35), GLP1 (7-35), two flexible linkers, 2G C-terminal extension, wildtype feline IgG2 Fc
- Mean Melting Point Temperature (Tm) ([2]; pH 6): 55.2 °C
- Mean Melting Point Temperature (Tm) ([2]; pH 7): 55.7 °C
- Mean Melting Point Temperature (Tm) ([2]; pH 8): 54.2 °C

B3: canine IgG-B Fc: wild-type canine IgG-B Fc polypeptide (protein)
chain: PAPEMLGGPSVFIFPPKPKDTLLIARTPEVTCVVVDLDPEDPEVQISWFVDGKQMQTAKTQPREEQFNGTYRVVSVLPIGHQDWLKGKQFTCKVNNKALPSPIERTISKARGQAHQPSVYVLPPSREELSKNTVSLTCLIKDFFPPDIDVEWQSNGQQEPESKYRTTPPQLDEDGSYFLYSKLSVDKSRWQRGDTFICAVMHEALHNHYTQESLSHSPGK
modifications: Wild-type canine IgG-B Fc , Protein A +, C1q +, CD16 +
notes: wild-type canine IgG-B Fc polypeptide
- Protein A binding affinity (Protein A): has Protein A binding affinity
- binding affinity to C1q (C1q [1]): bind to C1q
- CD16 binding activity (CD16): have CD16 binding activity

B4: fusion protein comprising variant canine IgG-B Fc K(93)R: fusion protein comprising variant canine IgG-B Fc K(93)R (SEQ ID NO: 78); fusion partner not stated (protein)
chain: PAPEMLGGPSVFIFPPKPKDTLLIARTPEVTCVVVDLDPEDPEVQISWFVDGKQMQTAKTQPREEQFNGTYRVVSVLPIGHQDWLKGKQFTCRVNNKALPSPIERTISKARGQAHQPSVYVLPPSREELSKNTVSLTCLIKDFFPPDIDVEWQSNGQQEPESKYRTTPPQLDEDGSYFLYSKLSVDKSRWQRGDTFICAVMHEALHNHYTQESLSHSPGK
modifications: left off: a dimerising Fc or GST
- binding to human C1q (C1q [3]): Reduced binding

B5: canine IgG-D Fc: wild-type canine IgG-D Fc polypeptide (protein)
chain: PVPESLGGPSVFIFPPKPKDILRITRTPEITCVVLDLGREDPEVQISWFVDGKEVHTAKTQPREQQFNSTYRVVSVLPIEHQDWLTGKEFKCRVNHIGLPSPIERTISKARGQAHQPSVYVLPPSPKELSSSDTVTLTCLIKDFFPPEIDVEWQSNGQPEPESKYHTTAPQLDEDGSYFLYSKLSVDKSRWQQGDTFTCAVMHEALQNHYTDLSLSHSPGK
modifications: Wild-type canine IgG-D Fc , Protein A -, C1q -, CD16
notes: wild-type canine IgG-D Fc polypeptide
- Protein A binding affinity (Protein A): weak or no measurable Protein A binding affinity
- Protein A Binding (Protein A): −
- binding affinity to C1q (C1q [1]): weak or no measurable binding affinity to C1q
- C1q Binding (C1q [1]): −
- CD16 Binding (CD16): −

B6: GLP1-G8_I_WTfeIgG2: Formula I contiguous polypeptide: GLP1-G8 (7-35), flexible linker, wildtype feline IgG2 Fc (protein)
chain: HGEGTFTSDVSSYLEGQAAKEFIAWLVKGGGGSGGGGSGGGGSGGGGSPKTASTIESKTGEGPKCPVPEIPGAPSVFIFPPKPKDTLSISRTPEVTCLVVDLGPDDSNVQITWFVDNTEMHTAKTRPREEQFNSTYRVVSVLPILHQDWLKGKEFKCKVNSKSLPSAMERTISKAKGQPHEPQVYVLPPTQEELSENKVSVTCLIKGFHPPDIAVEWEITGQPEPENNYQTTPPQLDSDGTYFLYSRLSVDRSHWQRGNTYTCSVSHEALHSHHTQKSLTQSPGK
modifications: Synthetic GLP1-G8_I_WTfeIgG2
notes: Formula I contiguous polypeptide: GLP1-G8 (7-35), flexible linker, wildtype feline IgG2 Fc
- Mean Melting Point Temperature (Tm) ([2]; pH 5): 48.5 °C
- Mean Melting Point Temperature (Tm) ([2]; pH 6): 56.9 °C
- Mean Melting Point Temperature (Tm) ([2]; pH 7): 59.9 °C
- Mean Melting Point Temperature (Tm) ([2]; pH 8): 59 °C

B7: canine IgG-C Fc: wild-type canine IgG-C Fc polypeptide (protein)
chain: PGCGLLGGPSVFIFPPKPKDILVTARTPTVTCVVVDLDPENPEVQISWFVDSKQVQTANTQPREEQSNGTYRVVSVLPIGHQDWLSGKQFKCKVNNKALPSPIEEIISKTPGQAHQPNVYVLPPSRDEMSKNTVTLTCLVKDFFPPEIDVEWQSNGQQEPESKYRMTPPQLDEDGSYFLYSKLSVDKSRWQRGDTFICAVMHEALHNHYTQISLSHSPGK
modifications: Wild-type canine IgG-C Fc , Protein A - , C1q +, CD16 +
notes: wild-type canine IgG-C Fc polypeptide
- Protein A binding affinity (Protein A): weak or no measurable Protein A binding affinity
- Protein A Binding (Protein A): −
- binding affinity to C1q (C1q [1]): bind to C1q
- CD16 binding activity (CD16): have CD16 binding activity
